Experimental data from publication PMC5748837, “Biochemical characterization of INTS3 and C9ORF80, two subunits of hNABP1/2 heterotrimeric complex in nucleic acid binding”.

Columns and labels:
Assay in all cases: EMSA; EMSA: 20 mM HEPES pH 7.3, 100 mM KCl, 1 mM MgCl2, 1 mg/ml BSA, 1 mM DTT, 6% glycerol, 0.5 nM 32P substrate, 30 min on ice; 5% native PAGE, 1x TBE, 4°C
INTS3C = INTS3C (human, UniProt Q68E01-2 514-1042); conditions: protein: recombinant, tags: His (pET28a), label: 5'-32P
hNABP2 (hSSB1) = hNABP2 (hSSB1) (human, UniProt Q9BQ15 1-211); conditions: protein: recombinant; tags: His; label: 5'-32P
[1] = target: INTS3FL in co-expressed complex;hNABP2 (hSSB1);C9ORF80 (human;human;human, UniProt Q68E01-2;Q9BQ15;Q9NRY2 1-1042;1-211;1-104, ||); conditions: protein: recombinant;recombinant;recombinant; tags: GST (pGEX-6P-1); copies: 1;1;1; label: 5'-32P
INTS3FL = INTS3FL (human, UniProt Q68E01-2 1-1042); conditions: protein: recombinant, tags: GST cleaved (PreScission)
C9ORF80 = target: T1, C9ORF80 (human, UniProt Q9NRY2 1-104); conditions: protein: recombinant, tags: His (pET28a)
T1 sequence: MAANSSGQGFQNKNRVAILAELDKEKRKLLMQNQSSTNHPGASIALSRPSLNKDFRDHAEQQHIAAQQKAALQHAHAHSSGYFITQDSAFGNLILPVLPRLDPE

[2] = target: INTS3FL in co-expressed complex;hNABP1 (hSSB2);C9ORF80 (human;human;human, UniProt Q68E01-2;Q96AH0;Q9NRY2 1-1042;1-204;1-104, ||); conditions: protein: recombinant;recombinant;recombinant; tags: GST (pGEX-6P-1); copies: 1;1;1; label: 5'-32P
hNABP1 (hSSB2) = hNABP1 (hSSB2) (human, UniProt Q96AH0 1-204); conditions: protein: recombinant; tags: His; label: 5'-32P
[3] = label: 5'-32P on one strand, blunt

Sequence of INTS3FL (Q68E01 other isoform, or with tags, fused parts or gaps): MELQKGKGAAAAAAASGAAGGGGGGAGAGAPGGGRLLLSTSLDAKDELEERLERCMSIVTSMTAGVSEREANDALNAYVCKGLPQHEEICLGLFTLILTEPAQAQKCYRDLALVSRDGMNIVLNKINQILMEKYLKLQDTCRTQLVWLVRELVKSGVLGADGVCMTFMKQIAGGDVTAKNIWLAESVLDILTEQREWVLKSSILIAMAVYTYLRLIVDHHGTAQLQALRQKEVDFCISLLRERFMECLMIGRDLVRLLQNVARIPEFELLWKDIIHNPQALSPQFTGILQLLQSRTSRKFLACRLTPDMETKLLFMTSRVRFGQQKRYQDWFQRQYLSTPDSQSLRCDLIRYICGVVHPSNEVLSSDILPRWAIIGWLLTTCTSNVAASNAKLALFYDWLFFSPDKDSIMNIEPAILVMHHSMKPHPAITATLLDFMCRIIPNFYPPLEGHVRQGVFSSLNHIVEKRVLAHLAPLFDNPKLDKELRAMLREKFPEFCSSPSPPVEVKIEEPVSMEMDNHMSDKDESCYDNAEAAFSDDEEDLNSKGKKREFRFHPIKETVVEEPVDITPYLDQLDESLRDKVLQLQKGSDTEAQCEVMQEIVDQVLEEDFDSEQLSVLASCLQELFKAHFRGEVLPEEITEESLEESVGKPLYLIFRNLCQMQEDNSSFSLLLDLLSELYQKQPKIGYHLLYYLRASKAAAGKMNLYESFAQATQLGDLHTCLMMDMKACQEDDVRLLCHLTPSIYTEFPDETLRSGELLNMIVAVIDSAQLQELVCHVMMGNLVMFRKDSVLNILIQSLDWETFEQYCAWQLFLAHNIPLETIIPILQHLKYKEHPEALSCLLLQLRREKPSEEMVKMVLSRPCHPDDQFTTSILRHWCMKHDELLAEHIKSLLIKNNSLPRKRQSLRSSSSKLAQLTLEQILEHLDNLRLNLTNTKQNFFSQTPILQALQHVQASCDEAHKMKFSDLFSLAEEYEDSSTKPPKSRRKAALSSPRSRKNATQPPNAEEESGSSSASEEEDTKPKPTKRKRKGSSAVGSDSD
Sequence of INTS3C (Q68E01 515-1043): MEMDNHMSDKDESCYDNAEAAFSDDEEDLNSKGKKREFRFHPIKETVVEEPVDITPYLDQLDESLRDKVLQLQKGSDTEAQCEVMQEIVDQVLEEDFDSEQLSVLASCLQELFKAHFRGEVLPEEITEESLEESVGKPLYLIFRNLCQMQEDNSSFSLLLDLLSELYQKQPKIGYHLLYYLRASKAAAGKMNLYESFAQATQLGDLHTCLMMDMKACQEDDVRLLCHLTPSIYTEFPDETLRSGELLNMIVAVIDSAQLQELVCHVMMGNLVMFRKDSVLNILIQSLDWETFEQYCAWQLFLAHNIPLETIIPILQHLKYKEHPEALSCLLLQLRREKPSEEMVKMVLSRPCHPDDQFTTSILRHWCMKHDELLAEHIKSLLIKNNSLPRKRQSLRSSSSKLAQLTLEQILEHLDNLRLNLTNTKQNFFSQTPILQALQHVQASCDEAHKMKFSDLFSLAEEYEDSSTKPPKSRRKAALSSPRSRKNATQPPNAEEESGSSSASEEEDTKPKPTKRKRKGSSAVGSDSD
Sequence of INTS3FL in co-expressed complex;hNABP1 (hSSB2);C9ORF80 (Q68E01 other isoform, or with tags, fused parts or gaps ||, chain 1 of 2): as the sequence (Q68E01 other isoform, or with tags, fused parts or gaps) above
Sequence of INTS3FL in co-expressed complex;hNABP1 (hSSB2);C9ORF80 (Q96AH0 whole entry, chain 2 of 2): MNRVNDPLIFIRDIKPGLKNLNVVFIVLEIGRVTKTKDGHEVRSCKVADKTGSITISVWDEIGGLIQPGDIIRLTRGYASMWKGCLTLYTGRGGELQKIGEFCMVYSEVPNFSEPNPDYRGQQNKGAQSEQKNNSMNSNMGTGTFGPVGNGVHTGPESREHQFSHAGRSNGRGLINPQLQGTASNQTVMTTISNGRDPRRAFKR
Sequence of INTS3FL in co-expressed complex;hNABP2 (hSSB1);C9ORF80 (Q68E01 other isoform, or with tags, fused parts or gaps ||, chain 1 of 2): as the sequence (Q68E01 other isoform, or with tags, fused parts or gaps) above
Sequence of INTS3FL in co-expressed complex;hNABP2 (hSSB1);C9ORF80 (Q9BQ15 whole entry, chain 2 of 2): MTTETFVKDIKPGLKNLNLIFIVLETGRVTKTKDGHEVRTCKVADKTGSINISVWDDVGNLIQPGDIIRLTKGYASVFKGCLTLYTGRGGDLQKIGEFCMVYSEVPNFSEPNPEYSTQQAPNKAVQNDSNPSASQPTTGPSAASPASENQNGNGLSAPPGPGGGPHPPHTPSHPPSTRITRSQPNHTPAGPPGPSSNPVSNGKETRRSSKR
Sequence of hNABP2 (hSSB1) (Q9BQ15 whole entry): as the sequence (Q9BQ15 whole entry, chain 2 of 2) above
Sequence of hNABP1 (hSSB2) (Q96AH0 whole entry): as the sequence (Q96AH0 whole entry, chain 2 of 2) above

B1: rU30 (ssRNA)
RNA: UUUUUUUUUUUUUUUUUUUUUUUUUUUUUU
- Kd (INTS3C; chain copies: 2): 1.2 ± 0.8 µM
- Kd (hNABP2 (hSSB1)): 0.06 ± 0.02 µM
- Kd [1]: 0.5 ± 0.07 µM
- Kd (INTS3FL; label: 5'-32P): 5.6 ± 1.2 µM

B2: dT60 (ssDNA)
DNA: TTTTTTTTTTTTTTTTTTTTTTTTTTTTTTTTTTTTTTTTTTTTTTTTTTTTTTTTTTTT
- binding result (INTS3FL; label: 5'-32P): binds

B3: dsRNA 30-mer (dsRNA)
RNA 1: GAGCUACCAGCUACCCCGUAUGUCAGAGAG
RNA 2: CUCUCUGACAUACGGGGUAGCUGGUAGCUC
- binding result (C9ORF80; [3]): no binding
- binding result (INTS3FL; [3]): no binding

B4: DNA:RNA hybrid 30-mer (DNA:RNA)
DNA: GAGCTACCAGCTACCCCGTATGTCAGAGAG
RNA: CUCUCUGACAUACGGGGUAGCUGGUAGCUC
- binding result (C9ORF80; [3]): no binding
- binding result (INTS3FL; [3]): no binding

B5: dT90 (ssDNA)
DNA: TTTTTTTTTTTTTTTTTTTTTTTTTTTTTTTTTTTTTTTTTTTTTTTTTTTTTTTTTTTTTTTTTTTTTTTTTTTTTTTTTTTTTTTTTT
- binding result (C9ORF80; label: 5'-32P): binds
- binding result (INTS3FL; label: 5'-32P): binds

B6: DNA 30-mer (random) (ssDNA)
DNA: GAGCTACCAGCTACCCCGTATGTCAGAGAG
- Kd (INTS3FL; label: 5'-32P): 13 ± 0.8 µM

B7: dT30 (ssDNA)
DNA: TTTTTTTTTTTTTTTTTTTTTTTTTTTTTT
- Kd [2]: 0.6 ± 0.09 µM
- Kd (C9ORF80; label: 5'-32P): 13.2 ± 1.2 µM
- Kd (INTS3C): 7.2 ± 1.2 µM
- Kd (hNABP1 (hSSB2)): 0.15 ± 0.04 µM

B8: DNA 60-mer (random) (ssDNA)
DNA: ACGCAGTTGAGTATTCTACAGAGTTGGCGTGAGCTACCAGCTACCCCGTATGTCAGAGAG
- Kd (INTS3FL; label: 5'-32P): 6.4 ± 0.9 µM
